Legend:
[1] = target: T1, Ectodomain of Arabidopsis thaliana MIK2, TwinStrep- and HA-tagged (Arabidopsis thaliana, UniProt Q8VZG8 44-709); assay: ligand-depletion assay
T1 sequence (looked up): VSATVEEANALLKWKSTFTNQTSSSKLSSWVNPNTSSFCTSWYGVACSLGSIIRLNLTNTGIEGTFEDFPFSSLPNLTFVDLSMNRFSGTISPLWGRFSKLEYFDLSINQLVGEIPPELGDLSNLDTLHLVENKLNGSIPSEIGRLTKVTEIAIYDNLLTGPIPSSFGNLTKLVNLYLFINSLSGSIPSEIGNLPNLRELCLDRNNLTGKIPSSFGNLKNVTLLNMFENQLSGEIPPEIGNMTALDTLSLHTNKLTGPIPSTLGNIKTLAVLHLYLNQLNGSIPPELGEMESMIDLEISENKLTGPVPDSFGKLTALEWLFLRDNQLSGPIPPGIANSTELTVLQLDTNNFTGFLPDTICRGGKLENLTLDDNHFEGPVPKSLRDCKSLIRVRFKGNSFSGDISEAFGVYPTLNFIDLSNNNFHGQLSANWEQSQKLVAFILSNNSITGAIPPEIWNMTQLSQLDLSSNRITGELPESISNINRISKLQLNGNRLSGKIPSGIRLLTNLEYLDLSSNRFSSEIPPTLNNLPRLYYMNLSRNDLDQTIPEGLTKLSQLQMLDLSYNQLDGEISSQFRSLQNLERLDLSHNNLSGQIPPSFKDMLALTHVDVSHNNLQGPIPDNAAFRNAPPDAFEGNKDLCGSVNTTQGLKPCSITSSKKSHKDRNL

[2] = target: Ectodomain of Arabidopsis thaliana FLAGELLIN-SENSING 2, TwinStrep- and HA-tagged (Arabidopsis thaliana, UniProt Q9FL28 24-806); assay: ligand-depletion assay
Sequence of Ectodomain of Arabidopsis thaliana FLAGELLIN-SENSING 2, TwinStrep- and HA-tagged (Q9FL28 24-806): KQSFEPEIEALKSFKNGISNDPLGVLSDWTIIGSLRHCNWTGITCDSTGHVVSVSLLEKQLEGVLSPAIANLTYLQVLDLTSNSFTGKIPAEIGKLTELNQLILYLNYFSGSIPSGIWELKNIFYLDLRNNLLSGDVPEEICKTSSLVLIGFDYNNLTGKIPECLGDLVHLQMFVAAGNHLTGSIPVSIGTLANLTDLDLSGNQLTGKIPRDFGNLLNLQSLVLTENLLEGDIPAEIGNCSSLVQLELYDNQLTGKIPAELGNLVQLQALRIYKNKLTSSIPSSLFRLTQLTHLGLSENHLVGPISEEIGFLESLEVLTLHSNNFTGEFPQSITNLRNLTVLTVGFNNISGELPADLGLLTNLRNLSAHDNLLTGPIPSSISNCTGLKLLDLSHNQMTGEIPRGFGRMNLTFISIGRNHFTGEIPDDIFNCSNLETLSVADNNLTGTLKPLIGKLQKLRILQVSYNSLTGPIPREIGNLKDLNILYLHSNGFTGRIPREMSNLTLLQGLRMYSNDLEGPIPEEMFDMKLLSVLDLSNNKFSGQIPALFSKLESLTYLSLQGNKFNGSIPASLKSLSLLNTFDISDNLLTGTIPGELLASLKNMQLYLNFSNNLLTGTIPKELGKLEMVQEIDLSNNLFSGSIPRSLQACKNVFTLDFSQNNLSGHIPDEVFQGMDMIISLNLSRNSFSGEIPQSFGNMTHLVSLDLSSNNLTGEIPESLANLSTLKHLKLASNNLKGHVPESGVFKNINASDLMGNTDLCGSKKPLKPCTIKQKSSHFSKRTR

PVRSSQSSQAGGR [AtSCOOP12 (SERINE-RICH ENDOGENOUS PEPTIDE 12)]
binding result [1]: binds

QRLSTGSRINSAKDDAAGLQIA [flg22 peptide]
binding result [2]: binds

— article doi:10.1101/2025.05.22.655486 (bioRxiv, 2025)
